Experimental data reported in paper PMC8524200, “Structural studies of codeinone reductase reveal novel insights into aldo-keto reductase function in benzylisoquinoline alkaloid biosynthesis” (The Journal of Biological Chemistry, 2021).

Molecular target: the molecule itself
Test: SEC; Superdex 200 (2.4 ml), 25 mM Tris-HCl pH 7.5, 150 mM KCl, 0.5 mM EDTA; COR1.3 0.5 mg/ml diluted in running buffer and incubated overnight at room temperature (oxidizing conditions); also run with 1 mM DTT in the buffer (reducing conditions: dimer destabilized)

B1: codeinone reductase COR1.3 isoform (enzyme, Papaver somniferum)
chain: MESNGVPMITLSSGIRMPALGMGTAETMVKGTEREKLAFLKAIEVGYRHFDTAAAYQSEECLGEAIAEALQLGLIKSRDELFITSKLWCADAHADLVLPALQNSLRNLKLDYLDLYLIHHPVSLKPGKFVNEIPKDHILPMDYKSVWAAMEECQTLGFTRAIGVCNFSCKKLQELMAAAKIPPVVNQVEMSPTLHQKNLREYCKANNIMITAHSVLGAICAPWGSNAVMDSKVLHQIAVARGKSVAQVSMRWVYQQGASLVVKSFNEGRMKENLKIFDWELTAENMEKISEIPQSRTSSADFLLSPTGPFKTEEEFWDEKD
modifications: intermolecular disulfide bond between Cys-220 of each protomer
notes: codeinone reductase isoform COR1.3, Papaver somniferum (AAF13738; Q9SQ68.1); The methods for size-exclusion chromatography say only 'purified COR1.3'; also called apo-COR
  stoichiometry N: 2
